# Results: the supplement of paper PMC9112550, “Optimization of the antimicrobial peptide Bac7 by deep mutational scanning” (BMC Biology, 2022)
# Tested on: Escherichia coli TOP10
# Experiment: shrunken log2 fold change of peptide-encoding DNA abundance (4.5 h post-induction vs induction); higher = less antimicrobial activity (less host growth inhibition)
# Settings: time post-induction: 4.5 h; library: site-saturation at positions 5, 18, 19, 20
# 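Also: peptides expressed intracellularly from a pBAD plasmid library in pooled LB shake-flask culture, induced with 0.3% L-arabinose, DNA abundance read by NGS, three biological replicates, DESeq2 with apeglm shrinkage.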
row,Sequence,shrunken log2 fold change
1,RRIRVRPPRLPRPRPRPIDEPRP,0.0357
2,RRIRKRPPRLPRPRPRPQGKPRP,0.0114
3,RRIRLRPPRLPRPRPRPKKVPRP,-0.0117
4,RRIRARPPRLPRPRPRPHQCPRP,-0.0483
5,RRIRQRPPRLPRPRPRPDNSPRP,-0.0422
6,RRIRFRPPRLPRPRPRPEPMPRP,-0.278
7,RRIRERPPRLPRPRPRPFADPRP,-0.192
8,RRIRWRPPRLPRPRPRPYLMPRP,-0.319
9,RRIRLRPPRLPRPRPRPFICPRP,-0.426
10,RRIRSRPPRLPRPRPRPLVDPRP,0.115
11,RRIRMRPPRLPRPRPRPSPVPRP,0.384
12,RRIRWRPPRLPRPRPRPEKSPRP,0.486
13,RRIRNRPPRLPRPRPRPIIEPRP,0.00312
14,RRIRSRPPRLPRPRPRPRQQPRP,0.0352
15,RRIRHRPPRLPRPRPRPNKRPRP,-0.198
16,RRIRTRPPRLPRPRPRPPWQPRP,0.698
17,RRIRYRPPRLPRPRPRPLCIPRP,-1.22
18,RRIRARPPRLPRPRPRPRACPRP,0.447
19,RRIRSRPPRLPRPRPRPCPVPRP,-0.0785
20,RRIRTRPPRLPRPRPRPTFMPRP,-0.191
21,RRIRVRPPRLPRPRPRPYENPRP,-0.293
22,RRIRERPPRLPRPRPRPSKRPRP,-0.00769
23,RRIRRRPPRLPRPRPRPAGQPRP,1.41
24,RRIRNRPPRLPRPRPRPKGGPRP,0.226
25,RRIRYRPPRLPRPRPRPPCHPRP,-0.285

row,Sequence,shrunken log2 fold change
1,RRIRGRPPRLPRPRPRPWIDPRP,-0.103
2,RRIRDRPPRLPRPRPRPESEPRP,0.444
3,RRIRQRPPRLPRPRPRPNGHPRP,-0.104
4,RRIRARPPRLPRPRPRPLQAPRP,0.674
5,RRIRYRPPRLPRPRPRPGLEPRP,0.114
6,RRIRVRPPRLPRPRPRPTTRPRP,0.293
7,RRIRWRPPRLPRPRPRPWLYPRP,-0.128
8,RRIRARPPRLPRPRPRPEPNPRP,1.16
9,RRIRLRPPRLPRPRPRPYFVPRP,-0.65
10,RRIRARPPRLPRPRPRPTNTPRP,0.0887
11,RRIRERPPRLPRPRPRPNFSPRP,-0.114
12,RRIRWRPPRLPRPRPRPQNGPRP,0.00668
13,RRIRNRPPRLPRPRPRPHNIPRP,-0.54
14,RRIRRRPPRLPRPRPRPTIRPRP,0.129
15,RRIRYRPPRLPRPRPRPEQHPRP,-0.0567
16,RRIRFRPPRLPRPRPRPTKPPRP,-0.00249
17,RRIRFRPPRLPRPRPRPKGCPRP,0.418
18,RRIRYRPPRLPRPRPRPADNPRP,-0.938
19,RRIRRRPPRLPRPRPRPYIYPRP,-0.268
20,RRIRVRPPRLPRPRPRPSYDPRP,-0.576
21,RRIRRRPPRLPRPRPRPRAQPRP,0.5
22,RRIRARPPRLPRPRPRPKRDPRP,0.135
23,RRIRHRPPRLPRPRPRPWVMPRP,-0.166
24,RRIRMRPPRLPRPRPRPYARPRP,-0.00176
25,RRIRHRPPRLPRPRPRPYGSPRP,-0.0135

row,Sequence,shrunken log2 fold change
1,RRIRHRPPRLPRPRPRPFERPRP,-0.128
2,RRIRKRPPRLPRPRPRPCNEPRP,-0.00256
3,RRIRMRPPRLPRPRPRPVYMPRP,-0.214
4,RRIRQRPPRLPRPRPRPCFRPRP,-0.155
5,RRIRVRPPRLPRPRPRPQVLPRP,0.00638
6,RRIRDRPPRLPRPRPRPIKPPRP,-0.00115
7,RRIRIRPPRLPRPRPRPLWVPRP,0.0248
8,RRIRDRPPRLPRPRPRPTWCPRP,0.18
9,RRIRDRPPRLPRPRPRPNGYPRP,-0.36
10,RRIRWRPPRLPRPRPRPSMAPRP,0.266
11,RRIRSRPPRLPRPRPRPVNQPRP,-0.155
12,RRIRYRPPRLPRPRPRPTINPRP,-1.41
13,RRIRCRPPRLPRPRPRPVIAPRP,-0.2
14,RRIRHRPPRLPRPRPRPSGIPRP,-0.0153
15,RRIRCRPPRLPRPRPRPDITPRP,-0.022
16,RRIRFRPPRLPRPRPRPPATPRP,0.562
17,RRIRKRPPRLPRPRPRPFQNPRP,-0.0235
18,RRIRRRPPRLPRPRPRPCCEPRP,0.122
19,RRIRNRPPRLPRPRPRPGLIPRP,0.16
20,RRIRWRPPRLPRPRPRPHNYPRP,-0.267
21,RRIRWRPPRLPRPRPRPCPWPRP,-0.0137
22,RRIRERPPRLPRPRPRPLIVPRP,-0.632
23,RRIRSRPPRLPRPRPRPGFYPRP,-0.312
24,RRIRCRPPRLPRPRPRPKEEPRP,-0.0302
25,RRIRLRPPRLPRPRPRPSCTPRP,-0.501

row,Sequence,shrunken log2 fold change
1,RRIRTRPPRLPRPRPRPFNCPRP,-0.038
2,RRIRRRPPRLPRPRPRPMSPPRP,-0.185
3,RRIRFRPPRLPRPRPRPWCEPRP,-0.429
4,RRIRNRPPRLPRPRPRPKRTPRP,-0.0256
5,RRIRNRPPRLPRPRPRPIGGPRP,-0.00925
6,RRIRARPPRLPRPRPRPIARPRP,1.01
7,RRIRTRPPRLPRPRPRPNWAPRP,-0.243
8,RRIRRRPPRLPRPRPRPHFKPRP,-0.0168
9,RRIRVRPPRLPRPRPRPVLSPRP,-0.11
10,RRIRWRPPRLPRPRPRPCDWPRP,0.0315
11,RRIRNRPPRLPRPRPRPLNIPRP,-0.389
12,RRIRNRPPRLPRPRPRPLTPPRP,0.136
13,RRIRFRPPRLPRPRPRPERCPRP,0.104
14,RRIRKRPPRLPRPRPRPFDHPRP,0.119
15,RRIRDRPPRLPRPRPRPYYHPRP,-0.972
16,RRIRMRPPRLPRPRPRPWQIPRP,-0.224
17,RRIRERPPRLPRPRPRPSRSPRP,0.116
18,RRIRMRPPRLPRPRPRPVSIPRP,0.0541
19,RRIRRRPPRLPRPRPRPLHVPRP,-0.125
20,RRIRCRPPRLPRPRPRPKMLPRP,-0.0357
21,RRIRSRPPRLPRPRPRPDWVPRP,0.305
22,RRIRKRPPRLPRPRPRPFENPRP,0.167
23,RRIRTRPPRLPRPRPRPTKPPRP,0.0402
24,RRIRSRPPRLPRPRPRPGQVPRP,-0.0247
25,RRIRNRPPRLPRPRPRPLCMPRP,-0.218

row,Sequence,shrunken log2 fold change
1,RRIRPRPPRLPRPRPRPQIAPRP,0.115
2,RRIRQRPPRLPRPRPRPDGTPRP,0.103
3,RRIRTRPPRLPRPRPRPQYPPRP,-0.923
4,RRIRYRPPRLPRPRPRPKSRPRP,-0.552
5,RRIRHRPPRLPRPRPRPCYFPRP,-0.117
6,RRIRMRPPRLPRPRPRPYHQPRP,-0.297
7,RRIRMRPPRLPRPRPRPNRQPRP,0.108
8,RRIRKRPPRLPRPRPRPAWGPRP,0.694
9,RRIRIRPPRLPRPRPRPFEQPRP,-0.0348
10,RRIRIRPPRLPRPRPRPHSVPRP,-0.0376
11,RRIRWRPPRLPRPRPRPTCSPRP,0.0967
12,RRIRYRPPRLPRPRPRPVNYPRP,-0.458
13,RRIRPRPPRLPRPRPRPSNVPRP,-0.463
14,RRIRHRPPRLPRPRPRPEMGPRP,0.00396
15,RRIRPRPPRLPRPRPRPPSPPRP,0.439
16,RRIRWRPPRLPRPRPRPAMNPRP,-0.326
17,RRIRLRPPRLPRPRPRPCKGPRP,-0.0757
18,RRIRIRPPRLPRPRPRPGAAPRP,0.18
19,RRIRPRPPRLPRPRPRPIQVPRP,0.0596
20,RRIRWRPPRLPRPRPRPSGRPRP,0.201
21,RRIRRRPPRLPRPRPRPFVRPRP,-0.174
22,RRIRLRPPRLPRPRPRPSRRPRP,-0.332
23,RRIRKRPPRLPRPRPRPQWAPRP,-0.0368
24,RRIRYRPPRLPRPRPRPENMPRP,-0.134
25,RRIRWRPPRLPRPRPRPYQSPRP,-0.583

row,Sequence,shrunken log2 fold change
1,RRIRFRPPRLPRPRPRPVQCPRP,0.0456
2,RRIRQRPPRLPRPRPRPDCTPRP,0.0901
3,RRIRCRPPRLPRPRPRPDLRPRP,-0.035
4,RRIRKRPPRLPRPRPRPNEMPRP,0.0671
5,RRIRKRPPRLPRPRPRPAMQPRP,0.115
6,RRIRSRPPRLPRPRPRPGRNPRP,-0.225
7,RRIRDRPPRLPRPRPRPLHSPRP,0.0372
8,RRIRARPPRLPRPRPRPCGVPRP,0.255
9,RRIRARPPRLPRPRPRPCCEPRP,0.512
10,RRIRQRPPRLPRPRPRPECWPRP,0.358
11,RRIRARPPRLPRPRPRPPLFPRP,0.789
12,RRIRMRPPRLPRPRPRPQILPRP,-0.0502
13,RRIRVRPPRLPRPRPRPFAAPRP,0.15
14,RRIRERPPRLPRPRPRPKRDPRP,0.024
15,RRIRDRPPRLPRPRPRPNLNPRP,-0.229
16,RRIRIRPPRLPRPRPRPKTDPRP,-0.292
17,RRIRPRPPRLPRPRPRPLTGPRP,0.019
18,RRIRSRPPRLPRPRPRPSYYPRP,-0.529
19,RRIRFRPPRLPRPRPRPPNSPRP,-0.544
20,RRIRQRPPRLPRPRPRPFTTPRP,-0.0246
21,RRIRYRPPRLPRPRPRPMKSPRP,-0.416
22,RRIRARPPRLPRPRPRPHTRPRP,0.0581
23,RRIRIRPPRLPRPRPRPGKDPRP,0.00215
24,RRIRCRPPRLPRPRPRPHMYPRP,-0.715
25,RRIRPRPPRLPRPRPRPGQIPRP,-0.0497
